The values below are quoted from earlier work in publication PMC12462375.

In data set [1] the target is CD47 (Homo sapiens) (UniProt Q08722).
Data set [2] concerns the target basigin (Homo sapiens) (UniProt P35613).
Chain of UniProt P35613 (P35613 22-325): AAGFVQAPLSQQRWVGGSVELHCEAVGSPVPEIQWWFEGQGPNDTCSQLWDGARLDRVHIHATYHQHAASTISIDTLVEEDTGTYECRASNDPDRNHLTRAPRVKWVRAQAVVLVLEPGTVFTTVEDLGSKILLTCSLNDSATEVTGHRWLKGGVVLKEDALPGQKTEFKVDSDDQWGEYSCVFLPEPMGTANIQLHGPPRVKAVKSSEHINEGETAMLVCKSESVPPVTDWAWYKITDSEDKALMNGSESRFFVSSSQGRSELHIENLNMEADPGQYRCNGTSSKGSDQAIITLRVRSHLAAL

Take SIRPα (PDB 4CMM) (from UniProt P78324): the Kd (in general, a measure of binding affinity in units of concentration) in data set [1] was 740 nM.
As to PfRH5 (from UniProt Q8IFM5), the equilibrium dissociation constant (Kd) in data set [2] is 1100 nM.
